Source: publication PMC10816394, “Radiosynthesis and Bioevaluation of ^99mTc-Labeled Isocyanide Ubiquicidin 29-41 Derivatives as Potential Agents for Bacterial Infection Imaging” (International Journal of Molecular Sciences, 2024)
No end group written: not given here.

Columns and labels:
[1] = system: S. aureus-infected mice; set-up: species or system female Kunming mice; conditions: mouse, in vivo
Method: Bacterial infection mouse models were constructed as follows: S. aureus (ATCC 25923) was cultured in a liquid medium at 37 °C for approximately 24 h, washed with PBS (pH 7.4) and diluted to obtain a suspension of 1 × 10^8 CFU/mL. […] The mice were sacrificed with isoflurane anesthesia at 120 min postinjection. […] To evaluate the metabolic properties of [^99mTc]Tc-CN5UBI 29-41, biodistribution studies were carried out in mice infected with S. aureus at 30, 120 and 240 min.

[2] = type: physicochemical; conditions: pH 7.4
Method: The lipophilicities of the ^99mTc-labeled complexes were evaluated by the distribution coefficient. The method for determining the distribution coefficient was as follows: 0.1 mL of the radiolabeled complex (3.7 MBq) was mixed with 0.9 mL of phosphate buffer (0.025 mol/L, pH 7.4) and 1 mL of n-octanol in a 5 mL centrifuge tube. The mixture was shaken on a vortex mixer at room temperature for 3 min and centrifuged at 5000 r/min for 5 min. Aliquots of 0.1 mL of both n-octanol and PBS were collected, and the radioactivity was determined with a γ-counter. The distribution coefficient was calculated as follows: Log D = lg[(counts per minute in n-octanol/counts per minute in PBS)]. Each group of measurements was carried out five times in parallel. The final results are expressed as the log D ± SD.

Substance	Abscess/Blood ratio [1]	Abscess/Muscle ratio (target-to-nontarget ratio) [1]	Log D ± SD, [^99mTc][Tc(Ⅰ)]^+ Core [2]	Log D ± SD, [^99mTc][Tc(Ⅴ)N]^2+ Core [2]
[^99mTc]Tc(CO)3-CN5UBI 29-41: ^99mTc complex of ligand CN5UBI 29-41 with the [^99mTc][Tc(I)(CO)3(H2O)3]^+ core (TGRAKRRMQYNRR; also: CN5 chelator, position not given here, 99mTc(CO)3 complex; UniProt P62861 103-115, looked up, fragment)	0.67 ± 0.15	2.49 ± 0.65	–	–
[^99mTc]Tc(CO)3-CN6UBI 29-41: ^99mTc complex of ligand CN6UBI 29-41 with the [^99mTc][Tc(I)(CO)3(H2O)3]^+ core (TGRAKRRMQYNRR; also: CN6 chelator, position not given here, 99mTc(CO)3 complex; UniProt P62861 103-115, looked up, fragment)	0.73 ± 0.19	2.48 ± 0.45	–	–
[^99mTc]Tc(CO)3-CN7UBI 29-41: ^99mTc complex of ligand CN7UBI 29-41 with the [^99mTc][Tc(I)(CO)3(H2O)3]^+ core (TGRAKRRMQYNRR; also: CN7 chelator, position not given here, 99mTc(CO)3 complex; UniProt P62861 103-115, looked up, fragment)	0.69 ± 0.08	2.43 ± 0.49	–	–
[^99mTc]Tc(CO)3-CN8UBI 29-41: ^99mTc complex of ligand CN8UBI 29-41 with the [^99mTc][Tc(I)(CO)3(H2O)3]^+ core (TGRAKRRMQYNRR; also: CN8 chelator, position not given here, 99mTc(CO)3 complex; UniProt P62861 103-115, looked up, fragment)	0.64 ± 0.11	2.42 ± 0.37	–	–
[^99mTc]Tc(CO)3-CN9UBI 29-41: ^99mTc complex of ligand CN9UBI 29-41 with the [^99mTc][Tc(I)(CO)3(H2O)3]^+ core (TGRAKRRMQYNRR; also: CN9 chelator, position not given here, 99mTc(CO)3 complex; UniProt P62861 103-115, looked up, fragment)	0.75 ± 0.12	2.60 ± 0.68	–	–
[^99mTc]Tc-CN6UBI 29-41: ^99mTc complex of ligand CN6UBI 29-41 with the [^99mTc]Tc(I)^+ core (TGRAKRRMQYNRR; also: CN6 chelator, position not given here, 99mTc(I) complex; UniProt P62861 103-115, looked up, fragment)	0.75 ± 0.10	3.48 ± 0.70	−2.62 ± 0.03	–
[^99mTc]Tc-CN7UBI 29-41: ^99mTc complex of ligand CN7UBI 29-41 with the [^99mTc]Tc(I)^+ core (TGRAKRRMQYNRR; also: CN7 chelator, position not given here, 99mTc(I) complex; UniProt P62861 103-115, looked up, fragment)	0.56 ± 0.09	2.52 ± 0.56	−2.57 ± 0.03	–
[^99mTc]Tc-CN8UBI 29-41: ^99mTc complex of ligand CN8UBI 29-41 with the [^99mTc]Tc(I)^+ core (TGRAKRRMQYNRR; also: CN8 chelator, position not given here, 99mTc complex with [99mTc]Tc(I)+ core; UniProt P62861 103-115, looked up, fragment)	0.66 ± 0.16	2.64 ± 0.65	−2.54 ± 0.01	–
[^99mTc]Tc-CN9UBI 29-41: ^99mTc complex of ligand CN9UBI 29-41 with the [^99mTc]Tc(I)^+ core (TGRAKRRMQYNRR; also: CN9 chelator, position not given here, 99mTc complex with [99mTc]Tc(I)+ core; UniProt P62861 103-115, looked up, fragment)	0.69 ± 0.04	2.62 ± 0.42	−2.52 ± 0.01	–
[^99mTc]TcN-CN5UBI 29-41: ^99mTc complex of ligand CN5UBI 29-41 with the [^99mTc][Tc(V)N]^2+ core (TGRAKRRMQYNRR; also: CN5 chelator, position not given here, 99mTc complex with [99mTc][Tc(V)N]2+ core; UniProt P62861 103-115, looked up, fragment)	0.69 ± 0.22	2.10 ± 0.80	–	−2.71 ± 0.03
[^99mTc]TcN-CN6UBI 29-41: ^99mTc complex of ligand CN6UBI 29-41 with the [^99mTc][Tc(V)N]^2+ core (TGRAKRRMQYNRR; also: CN6 chelator, position not given here, 99mTc complex with [99mTc][Tc(V)N]2+ core; UniProt P62861 103-115, looked up, fragment)	0.70 ± 0.15	3.32 ± 0.99	–	−2.65 ± 0.03
[^99mTc]TcN-CN7UBI 29-41: ^99mTc complex of ligand CN7UBI 29-41 with the [^99mTc][Tc(V)N]^2+ core (TGRAKRRMQYNRR; also: CN7 chelator, position not given here, 99mTc complex with [99mTc][Tc(V)N]2+ core; UniProt P62861 103-115, looked up, fragment)	0.58 ± 0.12	2.47 ± 0.47	–	−2.58 ± 0.04
[^99mTc]TcN-CN8UBI 29-41: ^99mTc complex of ligand CN8UBI 29-41 with the [^99mTc][Tc(V)N]^2+ core (TGRAKRRMQYNRR; also: CN8 chelator, position not given here, 99mTc complex with [99mTc][Tc(V)N]2+ core; UniProt P62861 103-115, looked up, fragment)	0.72 ± 0.13	2.81 ± 0.55	–	−2.55 ± 0.03
[^99mTc]TcN-CN9UBI 29-41: ^99mTc complex of ligand CN9UBI 29-41 with the [^99mTc][Tc(V)N]^2+ core (TGRAKRRMQYNRR; also: CN9 chelator, position not given here, 99mTc complex with [99mTc][Tc(V)N]2+ core; UniProt P62861 103-115, looked up, fragment)	0.70 ± 0.29	2.79 ± 0.82	–	−2.41 ± 0.03
